The results in this text go back to patent publication US20250333487A1 (CYTOMX THERAPEUTICS, published 2025).

Test [1] has as its target T1, biotinylated BC2 tag peptide QGQSGQPDRKAAVSHWQ
T1 construct: Synthesized at ELIM Biopharmaceuticals; loaded on SSA biosensor tips at 100 nM; also called free BC2T peptide; the peptide
T1 peptide: Biotin-QGQSGQPDRKAAVSHWQ
As to the kind of experiment: BLI (ForteBio Octet), biotinylated peptide on SSA biosensor tips, 100 nM Nb. Here is the method: (§1) Binding of the unmasked nanobody and single-anchored BC2T-Nb to free BC2T peptide was assessed by BLI using the ForteBio Octet device. While BLI is generally used to calculate association and dissociation kinetics of binding interactions, it was used herein to detect binding Peptide corresponding to the following sequence: […] (SEQ ID NO: 567) was synthesized at ELIM Biopharmaceuticals with a biotin at the N-terminus. The peptide was loaded on SSA biosensor tips (Pall/ForteBio Cat #18-5117) at 100 nM in Binding Buffer (BB: 1×PBS, pH 7.2, 5% glycerol, 0.1% Tween-20, 2% BSA) for 10 minutes. Baseline incubation in BB for 1 min before and after this capture step were used to confirm protein capture. The loaded tips were then incubated in 100 nM Nb in BB for 6 minutes followed by incubation in BB for 6 minutes. Changes in interference distance (nanometers) at the sensor tip are plotted against time to follow the binding/dissociation of soluble proteins from the immobilized ligand on the tip (FIG. 7).

Test [2] addresses T1, biotinylated BC2 tag peptide …. As to the kind of experiment: BLI (ForteBio Octet), biotinylated peptide on SSA biosensor tips. The protocol: Intact ProC653 and ProC654 show no binding to the biotinylated BC2 tag peptide, but binding was recovered upon activation with either MMP14 or MMP9, respectively.
as §1

Where no end group is shown, it is not given here. The star is where a group is joined. Biotin = O=C1N[C@H]2[C@H](CS[C@H]2CCCCC(=O)*)N1

B1: ProC649 (PP073), single-domain antibody (nanobody) with no MM attached, with His tag (VHH)
VHH: QVQLVESGGGLVQPGGSLTLSCTASGFTLDHYDIGWFRQAPGKEREGVSCINNSDDDTYYADSVKGRFTIFMNNAKDTVYLQMNSLKPEDTAIYYCAEARGCKRGRYEYDFWGQGTQVTVSS
notes: Monomer; also called unmasked nanobody; unmasked control
Consider B1, for which the binding result in test [1] is listed as “binds”.

B2: ProC653 (PP077), single-anchored BC2T-Nb: BC2 tag-1490DNI-Nanobody, intact (VHH)
chain: QGQSGQPDRKAAVSHWQQGGGSSGGSISSGLLSGRSDNIGGGSQVQLVESGGGLVQPGGSLTLSCTASGFTLDHYDIGWFRQAPGKEREGVSCINNSDDDTYYADSVKGRFTIFMNNAKDTVYLQMNSLKPEDTAIYYCAEARGCKRGRYEYDFWGQGTQVTVSSGGSHHHHHHHHHH
notes: Monomer, uncleaved (masked) form; also called single-domain antibody with MM attached with a CM 1490DNI
Take B2: the binding result in test [2] is “no binding (tested: 100 nM)”.

B3: ProC654 (PP078), single-anchored BC2T-Nb: BC2 tag-PLGLAG-Nanobody, intact (VHH)
chain: QGQSGQPDRKAAVSHWQQGGGSSGGSPLGLAGGGGSQVQLVESGGGLVQPGGSLTLSCTASGFTLDHYDIGWFRQAPGKEREGVSCINNSDDDTYYADSVKGRFTIFMNNAKDTVYLQMNSLKPEDTAIYYCAEARGCKRGRYEYDFWGQGTQVTVSSGGSHHHHHHHHHH
notes: Monomer, uncleaved (masked) form; also called single-domain antibody with MM attached with a CM PLGLAG
On to B3, for which the binding result in test [2] is given as “no binding (tested: 100 nM)”.
